In the supplement of paper PMC12042874:
± gives the uncertainty stated by the source.

Experiment: amyloid nucleation score (Sup35N fusion, yeast selection) (log enrichment); library NNK3; higher = more nucleation; inactive = no reads after selection
Procedure, shortened: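 Random libraries were run with three technical output replicates. In each, psi-negative yeast expressing Sup35N fused to peptides of 20 random codons were induced 24 hours with 100 μM copper sulfate and grown 7 days at 30°C on medium lacking adenine and uracil, and input and output plasmid inserts were Illumina-sequenced. The nucleation score is the DiMSum log enrichment of output over input reads, centred on the mode score of non-aggregating sequences, and sequences under 100 input reads were excluded.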

FQIWCIFYLNMS
amyloid nucleation score: 2 ± 0.095

FQKLEVNKLGIIWNHVLTRK
amyloid nucleation score: inactive

FQNHVSASKVVWHRFNRRKD
amyloid nucleation score: inactive

FQPMV
amyloid nucleation score: inactive

FQVYFLSVYACRCLMARLGS
amyloid nucleation score: inactive

FRESFLSSYVEYMTLGPGSN
amyloid nucleation score: -0.342 ± 0.87

FRFSGWLCWSTALPILVRKD
amyloid nucleation score: inactive

FRHFRSLLSVFLVYRFQLSV
amyloid nucleation score: inactive

FRIFVRRVI
amyloid nucleation score: 2.33 ± 0.084

FRKETNSSHGLMKWAKEQ
amyloid nucleation score: inactive

FRLKY
amyloid nucleation score: 0.12 ± 0.68

FRMPDGELSGT
amyloid nucleation score: inactive

FRMQGLKVREA
amyloid nucleation score: inactive

FRRLSFMVVFGERKGVVSLG
amyloid nucleation score: inactive

FRSVSLWSSN
amyloid nucleation score: inactive

FRVEFTVMFLGVCTYSGDAL
amyloid nucleation score: -0.329 ± 0.65

FRYVREAGIGIVG
amyloid nucleation score: inactive

FSACS
amyloid nucleation score: inactive

FSDCQLESGCCHRSRDLIGL
amyloid nucleation score: inactive

FSFNQWDLLKMSIGCFKRCK
amyloid nucleation score: inactive

FSFTIDAYRHRTTSVLMRMS
amyloid nucleation score: inactive

FSGRMVFNPPIISCSYSWSW
amyloid nucleation score: inactive

FSHHIDTFV
amyloid nucleation score: inactive

FSIFSVFEPWMISKFCP
amyloid nucleation score: inactive

FSITVFFVNIAATSKPYLDK
amyloid nucleation score: inactive

FSIWKV
amyloid nucleation score: inactive

FSLFFLCIFFDNRTKFMCLA
amyloid nucleation score: inactive

FSLLPKCLSLSGDRNGFKMC
amyloid nucleation score: inactive

FSMVCSFKWL
amyloid nucleation score: inactive

FSNLYLVMTNCPSRDPPVYT
amyloid nucleation score: inactive

FSPFNAENSETVTCTGCSHC
amyloid nucleation score: inactive

FSPFYCHILLH
amyloid nucleation score: inactive

FSRPLPTPESYRW
amyloid nucleation score: -0.287 ± 1.3

FSSMQDWSFGIYLNSEAPPT
amyloid nucleation score: inactive

FSTFRLSRLCHRDRRSHARQ
amyloid nucleation score: inactive

FSTQRLNG
amyloid nucleation score: inactive

FSVGEFCR
amyloid nucleation score: inactive

FSVGFYFIYMTLKCGSCVQW
amyloid nucleation score: -0.362 ± 1.1

FSVPLVCDIYCLYTDVEYRH
amyloid nucleation score: 2.53 ± 0.059

FSWFHRRSYSVVTSLCLMGR
amyloid nucleation score: inactive

FSWMC
amyloid nucleation score: inactive

FTCFNGQLVMA
amyloid nucleation score: inactive

FTDFCVCGCNVFDVMFLLQS
amyloid nucleation score: 2.67 ± 0.056

FTGKRSALGCIGVCILF
amyloid nucleation score: -0.598 ± 1.2

FTHAIPVYDEVPNHDICDGS
amyloid nucleation score: inactive

FTLASRLLWGRMCNV
amyloid nucleation score: inactive

FTLFMDRVIFASSVDSTEIL
amyloid nucleation score: inactive

FTPLNDDNKCVVSYEY
amyloid nucleation score: inactive

FTQCNEAGCWHESDTNFMQC
amyloid nucleation score: 0.109 ± 0.75

FTRNCSKWIVG
amyloid nucleation score: inactive

FTRYRNVFKWTMWFSYFWQA
amyloid nucleation score: inactive

FTSDGEYNRVLPGRSQGASF
amyloid nucleation score: -0.92 ± 2.5

FTTCMNYIRRLNRKAPNKCR
amyloid nucleation score: inactive

FVCCYVYAQQLRRRYIFNLS
amyloid nucleation score: inactive

FVCSARYNSFRFKATVHNSR
amyloid nucleation score: inactive

FVFSRNG
amyloid nucleation score: inactive

FVGNGWSNFSL
amyloid nucleation score: inactive

FVHKNPHHRFAQMCTKANCR
amyloid nucleation score: inactive

FVKKRLVKGKNFFIELFLMC
amyloid nucleation score: inactive

FVKLKYINFGCLRGCESGCL
amyloid nucleation score: 1.42 ± 0.13

FVPFERNKMIMKRICEVCVA
amyloid nucleation score: 0.97 ± 0.11

FVRIYNFILLAV
amyloid nucleation score: inactive

FVSDRSSGYTGMLIKDAL
amyloid nucleation score: inactive

FVSPYRNHVGVGSDADWGFR
amyloid nucleation score: inactive

FVSWWNRSYVCVWIKLMNWR
amyloid nucleation score: inactive

FVYFNT
amyloid nucleation score: inactive

FVYTDVCSQFFRMGHFDTSY
amyloid nucleation score: -0.21 ± 0.7

FVYWLILYLRRVAERR
amyloid nucleation score: inactive

FWEYVRKLIEYEYLGSR
amyloid nucleation score: inactive

FWHENSIAELWICKTLLGKF
amyloid nucleation score: inactive

FWKNHRAIHSMFQRHLRHTF
amyloid nucleation score: inactive

FWLGDM
amyloid nucleation score: inactive

FWLTNISFDLKFKINSSEFT
amyloid nucleation score: 0.205 ± 0.33

FWNRWVVQVDSLSMRMSRVA
amyloid nucleation score: inactive

FWNVCLDCISR
amyloid nucleation score: inactive

FWRYAYNCYCGYSCDQIGDS
amyloid nucleation score: inactive

FWSLNIQGSNYFLHIVNIGR
amyloid nucleation score: inactive

FWVRYGPNSQGVGPWTMHRW
amyloid nucleation score: 0.189 ± 0.74

FYCFIPGMSVMAPFVTSYYY
amyloid nucleation score: 1.91 ± 0.053

FYEHLVRSNFLSLRRMVRTV
amyloid nucleation score: inactive

FYFNRHRHHNVCRYLIGHPC
amyloid nucleation score: inactive

FYKGKG
amyloid nucleation score: inactive

FYLGRLSVNGRVVQRHNESM
amyloid nucleation score: inactive

FYLTR
amyloid nucleation score: inactive

FYMASMCCWF
amyloid nucleation score: inactive

FYMISPTISFLLFGLLANI
amyloid nucleation score: inactive

FYPKLPTLSVQDVGHRKPST
amyloid nucleation score: inactive

FYSIFN
amyloid nucleation score: inactive

FYSSSL
amyloid nucleation score: inactive

FYSWCR
amyloid nucleation score: inactive

FYSYRTCDGRIAGIIAGNRA
amyloid nucleation score: inactive

FYVASFWYYPKSEHNGA
amyloid nucleation score: inactive

FYYRESRQLRLWVYIGSIVY
amyloid nucleation score: inactive

GACYTFAA
amyloid nucleation score: inactive

GADDVTNRRTVVVSTQALCL
amyloid nucleation score: inactive

GADKFSMLRVYGICRLGSAC
amyloid nucleation score: -0.024 ± 0.93

GAFSWCSRVVDMVRLTRCDH
amyloid nucleation score: inactive

GALGSVMVNGRGVTSEGSPY
amyloid nucleation score: 0.341 ± 0.39

GCFGPLCDRLSEWMENCWKK
amyloid nucleation score: 0.392 ± 0.35

GCFSCVCLP
amyloid nucleation score: inactive

GCFYCQALNLHPLTSVHAD
amyloid nucleation score: inactive

GCFYIFRIY
amyloid nucleation score: -0.222 ± 1.3

GCGRCFL
amyloid nucleation score: inactive

GCNGDRFRF
amyloid nucleation score: -0.255 ± 0.88

GCWECPTYQMLCTRVCLTWT
amyloid nucleation score: inactive

GDEVHGFIVVQSREAFSRKL
amyloid nucleation score: inactive

GDFSSCL
amyloid nucleation score: inactive

GDGAYS
amyloid nucleation score: inactive

GDGNRWDRTGSCHLQGAYCR
amyloid nucleation score: inactive

GDGYRQRVLLWMLVSAGPAS
amyloid nucleation score: inactive

GDLGDVPGRWDWNKSWFVNY
amyloid nucleation score: inactive

GDMFDWFSGELVFRMRNILC
amyloid nucleation score: -0.917 ± 1.1

GDMKGSISCIIKKEVINVQC
amyloid nucleation score: inactive

GDSLWIFTAGIDCSYRLIFD
amyloid nucleation score: inactive

GDSSVTWI
amyloid nucleation score: inactive

GDTDFYRSCNASYIPSLSRL
amyloid nucleation score: inactive

GFAMVLSWLKSGFPISRDLR
amyloid nucleation score: inactive

GFETLYIYAVRGN
amyloid nucleation score: inactive

GFIVGLLARSTIFTTNYMLK
amyloid nucleation score: inactive

GFKFKYSYRIDLWEGHWVVR
amyloid nucleation score: inactive

GFLDDYIIMDQLLHEFVKRF
amyloid nucleation score: inactive

GFRFNKIRMSPDSNTLCGCA
amyloid nucleation score: inactive

GFSCVNFFAWIL
amyloid nucleation score: 1.81 ± 0.082

GFSLKGLNSNDTRSLSHKLG
amyloid nucleation score: inactive

GFSYMLVFSNGVYMLIRIRW
amyloid nucleation score: inactive

GFYNFVFSCASGYRCTGVMG
amyloid nucleation score: -0.357 ± 0.59

GGAKVLTV
amyloid nucleation score: inactive

GGCIGGSYSLERMFYSRVDE
amyloid nucleation score: inactive

GGKLKRCVYG
amyloid nucleation score: inactive

GGRLSLKESWKAGFSIAERF
amyloid nucleation score: inactive

GGRYTVAAEVKVTHAYATG
amyloid nucleation score: inactive

GGSLYACRGTLRLSNTNVKA
amyloid nucleation score: inactive

GGTLFLYGLIHQHWFLRMHE
amyloid nucleation score: 1.05 ± 0.16

GHFGVLMSGSTGGNLANQSG
amyloid nucleation score: inactive

GHFLISIKKLL
amyloid nucleation score: inactive

GHLMGETTY
amyloid nucleation score: inactive

GHLSIHREGFNLVSHLCANF
amyloid nucleation score: inactive

GHMWFFVFY
amyloid nucleation score: 2.52 ± 0.061

GHRRVVSLCYTYMRWI
amyloid nucleation score: inactive

GIAIFTMDCGV
amyloid nucleation score: inactive

GIELAVFYCHYIRVGSDVY
amyloid nucleation score: inactive

GIFKFMAV
amyloid nucleation score: inactive

GIGILEVWVSVRYGSWFKRI
amyloid nucleation score: inactive

GIGVSESRCVTVIWYYGGAV
amyloid nucleation score: inactive

GILLRFNKGA
amyloid nucleation score: inactive

GIQIYAMFTFSKSFMLGNWY
amyloid nucleation score: inactive

GIRVHGNFYMNSGSSTGG
amyloid nucleation score: 1.49 ± 0.073

GIWCYAITLGFRPAGSTWDS
amyloid nucleation score: 1.02 ± 0.15

GIYPSHHWGI
amyloid nucleation score: inactive

GKISVMYEMIYNLTNYDGRL
amyloid nucleation score: inactive

GKSLMK
amyloid nucleation score: inactive

GKVATHSIHDYFELSMTKGC
amyloid nucleation score: inactive

GKVNSWIGVRMKLLWSGRFG
amyloid nucleation score: inactive

GLAQTSLFI
amyloid nucleation score: inactive

GLCRNCF
amyloid nucleation score: inactive

GLFCNVFMNKCSS
amyloid nucleation score: inactive

GLFSLIIR
amyloid nucleation score: inactive

GLGMGAPQSILWVGDLLMTN
amyloid nucleation score: inactive

GLKFMRNVSTFRYLRRKTDY
amyloid nucleation score: inactive

GLLFCSL
amyloid nucleation score: -0.248 ± 0.34

GLLPSKKILFLAILTHNRCW
amyloid nucleation score: inactive
